Source: patent publication CN115505045A (MABWELL SHANGHAI BIOSCIENCE CO LTD, dated 2022)

Tests used:
[1] = molecular target: T1, 鼠重组蛋白LAG-3(Cat:53069-M08H，北京义翘神州科技股份有限公司) (mouse, UniProt Q61790 24-442); experiment: ELISA, antigen coated at 1 μg/mL
T1 construct: also called 小鼠LAG-3; 鼠LAG-3
T1 sequence (looked up): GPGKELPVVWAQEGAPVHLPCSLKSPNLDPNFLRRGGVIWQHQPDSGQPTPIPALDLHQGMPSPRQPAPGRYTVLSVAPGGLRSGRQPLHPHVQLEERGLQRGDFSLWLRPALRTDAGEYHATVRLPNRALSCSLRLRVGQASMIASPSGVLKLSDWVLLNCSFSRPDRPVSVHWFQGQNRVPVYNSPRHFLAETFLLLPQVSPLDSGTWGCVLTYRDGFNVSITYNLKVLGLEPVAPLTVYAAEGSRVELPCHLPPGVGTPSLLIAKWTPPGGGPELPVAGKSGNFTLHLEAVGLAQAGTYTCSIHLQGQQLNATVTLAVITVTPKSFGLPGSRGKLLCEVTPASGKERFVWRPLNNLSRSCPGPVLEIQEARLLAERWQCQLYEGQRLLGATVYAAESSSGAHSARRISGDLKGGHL

[2] = molecular target: T2, 鼠PD-L1(Cat:50010-M08H，北京义翘神州科技股份有限公司) (mouse, UniProt Q9EP73 19-238); experiment: ELISA, antigen coated at 1 μg/mL
T2 construct: also called 小鼠PD-L1
T2 sequence (Q9EP73 19-238 limits assumed, stated change not applied): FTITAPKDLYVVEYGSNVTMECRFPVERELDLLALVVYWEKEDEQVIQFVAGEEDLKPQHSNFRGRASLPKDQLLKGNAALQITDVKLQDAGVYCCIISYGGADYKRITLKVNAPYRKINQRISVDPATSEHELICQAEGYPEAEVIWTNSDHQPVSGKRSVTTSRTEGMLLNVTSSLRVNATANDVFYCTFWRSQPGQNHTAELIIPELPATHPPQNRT

肿瘤细胞MBA-MD-231细胞表面的PD-L1 = molecular target: T3, 肿瘤细胞MBA-MD-231细胞表面的PD-L1 (UniProt Q9NZQ7 19-290, limits assumed); experiment: flow cytometry on MBA-MD-231 tumour cells
T3 construct: whole, on cells; also called 细胞表面PD-L1
T3 sequence (Q9NZQ7 19-290 limits assumed): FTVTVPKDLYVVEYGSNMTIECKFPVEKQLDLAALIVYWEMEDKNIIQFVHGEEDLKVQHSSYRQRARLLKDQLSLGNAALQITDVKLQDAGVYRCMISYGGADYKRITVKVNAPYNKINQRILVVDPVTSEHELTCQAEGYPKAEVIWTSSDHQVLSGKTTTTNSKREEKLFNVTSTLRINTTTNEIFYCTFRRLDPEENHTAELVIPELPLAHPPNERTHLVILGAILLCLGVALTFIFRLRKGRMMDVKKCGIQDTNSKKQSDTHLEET

[3] = molecular target: T4, LAG-3(NCBI登录号:NP_002277.4)全长, HEK293细胞表面 (human, UniProt P18627 23-525); experiment: flow cytometry on HEK293 cells transfected with full-length LAG-3
T4 construct: whole, on cells; also called HEK293-LAG-3; 细胞表面LAG-3
T4 sequence (looked up): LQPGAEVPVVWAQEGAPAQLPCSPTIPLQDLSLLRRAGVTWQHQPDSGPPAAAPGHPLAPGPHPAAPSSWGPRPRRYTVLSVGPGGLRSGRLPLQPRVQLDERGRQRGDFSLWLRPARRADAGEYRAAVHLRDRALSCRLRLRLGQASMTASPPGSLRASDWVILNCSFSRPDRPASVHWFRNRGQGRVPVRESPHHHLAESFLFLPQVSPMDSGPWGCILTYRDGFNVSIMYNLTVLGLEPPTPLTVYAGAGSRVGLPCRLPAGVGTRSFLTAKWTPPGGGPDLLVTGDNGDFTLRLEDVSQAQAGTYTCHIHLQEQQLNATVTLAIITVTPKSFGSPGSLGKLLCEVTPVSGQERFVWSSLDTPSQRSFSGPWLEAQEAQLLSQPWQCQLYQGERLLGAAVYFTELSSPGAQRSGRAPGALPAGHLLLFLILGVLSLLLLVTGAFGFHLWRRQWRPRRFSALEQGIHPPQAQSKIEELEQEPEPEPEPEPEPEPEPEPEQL

[4] = molecular target: T5, 人LAG-3胞外区融合蛋白(义翘神州，Cat:16498-H08H) (human, UniProt P18627 23-450); experiment: SPR (Reichert 4SPR), antibody captured by anti-human Fc, antigen in flow
T5 construct: extracellular domain; also called 人重组蛋白LAG-3; 人LAG-3重组蛋白
T5 sequence (looked up): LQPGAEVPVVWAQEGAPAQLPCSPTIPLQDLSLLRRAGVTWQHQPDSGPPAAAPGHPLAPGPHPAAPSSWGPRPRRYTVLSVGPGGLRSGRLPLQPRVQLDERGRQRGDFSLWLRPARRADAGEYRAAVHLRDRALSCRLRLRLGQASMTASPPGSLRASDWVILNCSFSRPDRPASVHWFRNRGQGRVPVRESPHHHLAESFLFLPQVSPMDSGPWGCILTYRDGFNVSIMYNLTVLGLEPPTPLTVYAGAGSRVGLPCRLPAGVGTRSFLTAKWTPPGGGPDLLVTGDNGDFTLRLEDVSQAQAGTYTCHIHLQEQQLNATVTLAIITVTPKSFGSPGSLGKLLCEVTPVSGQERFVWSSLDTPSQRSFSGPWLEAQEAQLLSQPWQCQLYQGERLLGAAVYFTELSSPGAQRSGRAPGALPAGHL

[5] = molecular target: T6, 人PD-L1 on CHO-PD-L1-CD3L细胞 (human, UniProt Q9NZQ7 19-290); experiment: flow cytometry, double-positive cells (CFSE-labelled CHO-PD-L1-CD3L with HEK-293-LAG3-OFP)
T6 construct: whole, on cells; also called 高表达人PD-L1的CHO细胞
T6 sequence (Q9NZQ7 19-290): as the sequence (Q9NZQ7 19-290 limits assumed) above

[6] = molecular target: T7, LAG-3-OFP(NCBI登录号:NP_002277.4) on HEK293细胞 (human, UniProt P18627 23-525); experiment: as above
T7 construct: whole, on cells; also called HEK-293-LAG3-OFP; HEK293-LAG-3
T7 sequence (looked up): T4 sequence (looked up)

B1: hz7F10-hzB6 (bispecific antibody, human IgG1, kappa, L234A L235A)
heavy: not shown
light: DIQMTQSPSSLSASVGDRVTITCKASENVGTYVSWFQQKPGKAPKLLIYGASNRYTGVPSRFSGSGSGTDFTLTISSLQPEDFATYYCGQSYSYPYTFGQGTKLEIKRTVAAPSVFIFPPSDEQLKSGTASVVCLLNNFYPREAKVQWKVDNALQSGNSQESVTEQDSKDSTYSLSSTLTLSKADYEKHKVYACEVTHQGLSSPVTKSFNRGEC
notes: Expressed transiently in HEK293 cells; also called 抗人LAG-3/PD-L1双特异抗体; LAG-3/PD-L1双特异抗体
B1: no binding (tested: 1μg/mL) [1]; no binding (tested: 1μg/mL) [2]; binds (肿瘤细胞MBA-MD-231细胞表面的PD-L1). B1: binds [3]; binds [4]; binds [5]. B1: binds [6].

B2: hz7F10-hzF2 (bispecific antibody, human IgG1, kappa, L234A L235A)
heavy: not shown
light: B1 light
notes: as for B1
B2: no binding (tested: 1μg/mL) [1]; no binding (tested: 1μg/mL) [2]; binds (肿瘤细胞MBA-MD-231细胞表面的PD-L1). B2: binds [3]; binds [4].

B3: 人源化抗体hz7F10 (antibody, human IgG1, kappa, L234A L235A, V domains shown)
VH: EVQLVQSGAEVKKPGASVKVSCKASGVNIKDDYMHWVRQAPGQGLEWIGRIDPEDVETKYDPKFQGRVTITADTSTSTAYMELSSLRSEDTAVYYCARSFYSNYVNYFDQWGQGTLVTVSS
VL: DIQMTQSPSSLSASVGDRVTITCKASENVGTYVSWFQQKPGKAPKLLIYGASNRYTGVPSRFSGSGSGTDFTLTISSLQPEDFATYYCGQSYSYPYTFGQGTKLEIKR
notes: Humanised from mouse antibody 7F10; also called 裸抗体hz7F10; 抗LAG-3抗体hz7F10
B3: binds [3]; binds [4].

B4: 对照抗体BMS-986016 (antibody, human IgG4 S228P, kappa, V domains shown)
VH: QVQLQQWGAGLLKPSETLSLTCAVYGGSFSDYYWNWIRQPPGKGLEWIGEINHRGSTNSNPSLKSRVTLSLDTSKNQFSLKLRSVTAADTAVYYCAFGYSDYEYNWFDPWGQGTLVTVSS
VL: EIVLTQSPATLSLSPGERATLSCRASQSISSYLAWYQQKPGQAPRLLIYDASNRATGIPARFSGSGSGTDFTLTISSLEPEDFAVYYCQQRSNWPLTFGQGTNLEIKR
B4: no binding (tested: 1μg/mL) [1].
